This test concerns the target Sortilin (immobilised for SPR) (UniProt Q99523). The test is described as follows: SPR. A general note: Surface plasmon resonance follows binding to a sensor surface in real time, without labels.

One may read the Kd as a measure of binding affinity in units of concentration. Low values mean a tighter complex, high ones a looser complex.

Sequence of Sortilin (immobilised for SPR) (P20783 whole entry): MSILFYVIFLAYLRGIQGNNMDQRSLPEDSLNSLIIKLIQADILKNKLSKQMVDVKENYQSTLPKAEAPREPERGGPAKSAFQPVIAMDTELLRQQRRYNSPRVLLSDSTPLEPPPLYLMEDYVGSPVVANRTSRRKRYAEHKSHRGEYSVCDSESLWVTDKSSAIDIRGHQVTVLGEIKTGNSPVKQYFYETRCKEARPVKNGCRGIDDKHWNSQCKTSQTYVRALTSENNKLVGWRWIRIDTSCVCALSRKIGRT

Turning to “GST-NT3pro (prodomain of proNT3 fused to glutathione-S-transferase) (domain or fragment; other documents disagree on this pair)”, the Kd is 20 nM.

The values above are taken from paper PMC3078644.
